Assay [1] deals with Spike protein of live SARS-CoV-2 (isolate France/IDF0372/2020) (SARS-CoV-2, UniProt P0DTC2 14-1273). Nature of the assay: cell-based or functional assay.
For assay [2], the target named is T1, SARS-CoV-2 Spike ectodomain, stabilized prefusion trimer (spike ECD, Spike^S2P) (SARS-CoV-2).
T1 construct: also called SC2 Spike ECD; Spike trimer
Nature of the assay: SPR on captured Spike^S2P.

Assay [3] addresses T1, SARS-CoV-2 Spike ectodomain, stabilized …. Nature of the assay: SPR, fast phase of a biphasic dissociation from Spike^S2P.
Assay [4] has the same target. Description: SPR, slow phase of a biphasic dissociation from Spike^S2P.
For assay [5] the target is unchanged. Description: SPR.
For assay [6] the target is unchanged. Nature of the assay: SPR, no measurable dissociation over ten minutes.
Assay [7] has the same target.
Assay [8] shares this target. This is another data set of the same source.
For assay [9] the target is unchanged. Description: SPR, Spike^S2P captured on a StreptactinXT chip.

Values joined by “and” are separate entries in the source; they are usually repeats but may differ in a detail not shown here. Identical values can stand only once. A value given as a limit tells only on which side of the number the result lay.

B1: Nb6-tri (trivalent Nb6 with two 20 amino acid linkers) (VHH)
chain: QVQLVESGGGLVQAGGSLRLSCAASGIIFGRNAMGWYRQAPGKERELVAGITRRGSITYYADSVKGRFTISRDNAKNTVYLQMNSLKPEDTAVYYCAADPASPAPGDYWGQGTQVTVSSGGGGSGGGGSGGGGSGGGGSQVQLVESGGGLVQAGGSLRLSCAASGIIFGRNAMGWYRQAPGKERELVAGITRRGSITYYADSVKGRFTISRDNAKNTVYLQMNSLKPEDTAVYYCAADPASPAPGDYWGQGTQVTVSSGGGGSGGGGSGGGGSGGGGSQVQLVESGGGLVQAGGSLRLSCAASGIIFGRNAMGWYRQAPGKERELVAGITRRGSITYYADSVKGRFTISRDNAKNTVYLQMNSLKPEDTAVYYCAADPASPAPGDYWGQGTQVTVSS
B1: in assay [1], the “IC50, plaque assay with live SARS-CoV-2 on VeroE6 cells” value amounted to 0.16 nM. For the same molecule, in [2], the “fold gain in KD against Nb6” value is above 200000 fold. Moreover, the koff is 0.029 s⁻¹ in assay [3] and below 1e-06 s⁻¹ in [4].

B2: mNb6-tri (trivalent mNb6 with a 20 amino acid linker) (VHH)
chain: QVQLVESGGGLVQAGGSLRLSCAASGYIFGRNAMGWYRQAPGKERELVAGITRRGSITYYADSVKGRFTISRDNAKNTVYLQMNSLKPEDTAVYYCAADPASPAYGDYWGQGTQVTVSSGGGGSGGGGSGGGGSGGGGSQVQLVESGGGLVQAGGSLRLSCAASGYIFGRNAMGWYRQAPGKERELVAGITRRGSITYYADSVKGRFTISRDNAKNTVYLQMNSLKPEDTAVYYCAADPASPAYGDYWGQGTQVTVSSGGGGSGGGGSGGGGSGGGGSQVQLVESGGGLVQAGGSLRLSCAASGYIFGRNAMGWYRQAPGKERELVAGITRRGSITYYADSVKGRFTISRDNAKNTVYLQMNSLKPEDTAVYYCAADPASPAYGDYWGQGTQVTVSS
As to B2, in [5], the Kd is below 0.001 nM and the “dissociation half-life t½” value was above 192 h. For the same molecule, in assay [1], the “IC50, live SARS-CoV-2 infection assay” value was 54 pM and 2.3 ng/mL. Also, the koff in assay [6] was below 1e-06 s⁻¹.

B3: Nb6-bi (bivalent Nb6 with a 15 amino acid linker) (VHH)
chain: QVQLVESGGGLVQAGGSLRLSCAASGIIFGRNAMGWYRQAPGKERELVAGITRRGSITYYADSVKGRFTISRDNAKNTVYLQMNSLKPEDTAVYYCAADPASPAPGDYWGQGTQVTVSSGGGGSGGGGSGGGGSQVQLVESGGGLVQAGGSLRLSCAASGIIFGRNAMGWYRQAPGKERELVAGITRRGSITYYADSVKGRFTISRDNAKNTVYLQMNSLKPEDTAVYYCAADPASPAPGDYWGQGTQVTVSS
As for B3, the “fold gain in KD against Nb6” value in assay [2] stood at 750 fold. Moreover, the koff came out at 0.027 s⁻¹ in assay [3] and 0.00031 s⁻¹ in assay [4].

B4: Nb6 (AeroNab6, NbCOV6, clone pNbCOV006A) (VHH)
VHH: QVQLVESGGGLVQAGGSLRLSCAASGIIFGRNAMGWYRQAPGKERELVAGITRRGSITYYADSVKGRFTISRDNAKNTVYLQMNSLKPEDTAVYYCAADPASPAPGDYWGQGTQVTVSS
notes: also called AeroNab6 MASC monomer; Parent clone (NbCOV6)
The molecule B4 showed a half-maximal inhibitory concentration (IC50) in [7] of 370 nM. The molecule also came in with an EC50 in [8] of 359 nM. This molecule gave a koff in assay [2] of 0.056 s⁻¹. This molecule displayed a Kd in assay [9] of 210 nM.

B5: mNb6 (matured Nb6, mNbCOV6, AeroNab6m) (VHH)
VHH: QVQLVESGGGLVQAGGSLRLSCAASGYIFGRNAMGWYRQAPGKERELVAGITRRGSITYYADSVKGRFTISRDNAKNTVYLQMNSLKPEDTAVYYCAADPASPAYGDYWGQGTQVTVSS
Molecule B5 came in with an EC50 in [8] of 0.056 nM.
